Paper PMC4521985

Legend:
IFP2.0 = IFP2.0 (UniProt Q9RZA4); assay: AUC
IFP1.4 = IFP1.4 (UniProt Q9RZA4); assay: AUC

Substance	Kd (IFP2.0) [µM]	stoichiometry N (IFP2.0)	Kd (IFP1.4) [µM]	stoichiometry N (IFP1.4)
IFP2.0 (from UniProt Q9RZA4 1-321)	3.7	2	–	–
IFP1.4 (from UniProt Q9RZA4 1-321)	–	–	7.8	2
